Data published in patent US7402575B2, “Methods of treating inflammation” (priority 2003, dated 2008).

Biological target: T1, lysozyme c (Lzm-S) (Canis lupus familiaris, UniProt P81709)
T1 construct: Lzm-S was purified in a manner described by Grobler et al (14); from tissue
T1 sequence (P81709 1-130): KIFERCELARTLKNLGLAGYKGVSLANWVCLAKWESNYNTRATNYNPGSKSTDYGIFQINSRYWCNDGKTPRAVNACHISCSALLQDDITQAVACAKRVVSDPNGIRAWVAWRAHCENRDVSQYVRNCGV
Assay: Effect of enzyme treatment (of Lzm-S or of the trabeculae) on Lzm-S's depressant effect in right ventricular trabecular preparation
Format: cell-based, dog
Experimental: In subsequent experiments, the objective was to determine whether pretreatment of Lzm-S with the proteolytic enzyme proteinase-K reduced the extent to which myocardial depression developed in the in vitro preparation (7). Proteinase-K (attached to beaded agarose; Sigma Chemical, St Louis, Mo.) was added to the pure Lzm-S preparation. The effects of proteinase-K treated and nontreated Lzm-S on isometric tension were compared between the samples. Since proteinase-K is a non-specific proteolytic enzyme, a specific competitive inhibitor of lysozyme, TAC (chitotriose) was subsequently examined to determine whether it prevented the depression in isometric tension observed in the in vitro preparation (16,17).
Regardless of the type of carbohydrate structure to which Lzm-S may bind, it is possible to deglycosylate the carbohydrate structure by means of exoglycosidases in which a specific sugar residue is removed from the terminal end of the carbohydrate tree (47). […] In group 2, the trabeculae were initially bathed in sialidase (60 μl; 5 U/ml) for two hours to remove any N-acetylneuramic acid (NeuNAc) residues, after which the effect of Lzm-S was determined (all kits from Prozyme, San Leandro, Calif.; kit GE 23; Sialidase A). […]

Effect of enzyme treatment on Lzm-S's depressant activity: reduction in depressant activity
B1: Proteinase K: nonspecific proteolytic enzyme attached to beaded agarose (protein, UniProt P06873 106-384, looked up)
Proteinase K: AAQTNAPWGLARISSTSPGTSTYYYDESAGQGSCVYVIDTGIEASHPEFEGRAQMVKTYYYSSRDGNGHGTHCAGTVGSRTYGVAKKTQLFGVKVLDDNGSGQYSTIIAGMDFVASDKNNRNCPKGVVASLSLGGGYSSSVNSAAARLQSSGVMVAVAAGNNNADARNYSPASEPSVCTVGASDRYDRRSSFSNYGSVLDIFGPGTSILSTWIGGSTRSISGTSMATPHVAGLAAYLMTLGKTTAASACRYIADTANKGDLSNIPFGTVNLLAYNNYQA
modifications: attached to agarose beads
